In data set [1] the target is T1, φ29 DNA polymerase K538A (bacteriophage φ29, UniProt P03680 1-575, K538A).
T1 sequence: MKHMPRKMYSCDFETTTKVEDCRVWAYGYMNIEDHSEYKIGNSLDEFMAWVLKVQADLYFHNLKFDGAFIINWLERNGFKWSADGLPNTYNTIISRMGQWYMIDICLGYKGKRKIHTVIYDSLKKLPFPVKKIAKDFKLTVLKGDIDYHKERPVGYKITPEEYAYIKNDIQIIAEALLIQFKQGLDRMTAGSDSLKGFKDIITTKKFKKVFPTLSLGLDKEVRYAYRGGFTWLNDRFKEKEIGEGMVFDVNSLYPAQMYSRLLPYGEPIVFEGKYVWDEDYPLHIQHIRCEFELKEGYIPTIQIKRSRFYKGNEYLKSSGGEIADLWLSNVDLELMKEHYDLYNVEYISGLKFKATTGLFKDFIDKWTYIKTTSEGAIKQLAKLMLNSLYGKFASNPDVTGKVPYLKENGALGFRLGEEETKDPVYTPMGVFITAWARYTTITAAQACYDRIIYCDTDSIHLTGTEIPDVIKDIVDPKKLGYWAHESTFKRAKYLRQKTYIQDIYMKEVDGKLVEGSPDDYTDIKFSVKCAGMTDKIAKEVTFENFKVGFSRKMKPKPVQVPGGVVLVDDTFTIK
In words: EMSA. In general terms: A gel shift assay detects complexes by their altered migration in electrophoresis.

The target of data set [2] is T2, φ29 DNA polymerase T573A (bacteriophage φ29, UniProt P03680 1-575, T573A).
T2 sequence: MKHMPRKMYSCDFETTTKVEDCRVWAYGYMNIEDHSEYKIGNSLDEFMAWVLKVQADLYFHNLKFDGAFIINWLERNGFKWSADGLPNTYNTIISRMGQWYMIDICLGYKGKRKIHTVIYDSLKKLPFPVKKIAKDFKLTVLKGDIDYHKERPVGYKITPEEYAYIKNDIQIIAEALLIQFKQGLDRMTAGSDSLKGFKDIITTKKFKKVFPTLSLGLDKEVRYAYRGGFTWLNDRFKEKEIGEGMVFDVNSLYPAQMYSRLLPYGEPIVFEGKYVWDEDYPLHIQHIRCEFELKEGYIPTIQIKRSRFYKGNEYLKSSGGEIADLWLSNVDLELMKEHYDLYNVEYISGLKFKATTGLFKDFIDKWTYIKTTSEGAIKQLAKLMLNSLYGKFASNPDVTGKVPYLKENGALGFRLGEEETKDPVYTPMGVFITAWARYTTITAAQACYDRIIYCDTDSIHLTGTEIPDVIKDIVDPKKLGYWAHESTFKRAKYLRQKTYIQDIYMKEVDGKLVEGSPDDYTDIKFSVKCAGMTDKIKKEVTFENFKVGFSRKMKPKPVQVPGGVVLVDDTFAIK
In words: EMSA.

Consider 1 molecule from publication PMC1475753.

B1: sp1/sp1c+6 (15/21mer) (dsDNA)
DNA 1: GATCACAGTGAGTAC
DNA 2: TCTATTGTACTCACTGTGATC
Consider B1, for which the binding result in data set [1] and in data set [2] was “no binding” throughout.
